Source: the nanobody polyreactivity screen of Harvey et al. (2022)

Experiment: yeast display, Sf9 membrane polyspecificity reagent, FACS + sequencing; frameworks hold sequencing errors
How it was run: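 Using colony PCR, genes from sorted yeast display clones were amplified, then sequenced on MiSeq at 2 × 250 and filtered by CDR length. The clones had been stained with 10% biotinylated, detergent-solubilized Sf9 membrane reagent for 1 hour at 4 °C and sorted by FACS into low and high (top ~1%) gates on anti-HA and streptavidin fluorescence. Polyreactivity labels come from the gate of origin.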

Q: Which “polyreactivity (PSR sort gate)” value does the source give for “QVQLVESGGGLVQAGGSLRLSCAASGRIFVSNAMGWYRQAPGKERELVAAISSSGGSTYYADSVKGRFTISRDNAKNTVYLQMNSLKPEDTAVYYCNVLGQRYYPSGRNYWGQGTQVTVSS” here?
A: high polyreactivity

Q: For “QVQLVESGGGLVQAGGSLRLSCAASGRIFVSNAMGWYRQAPGKERELVACITWTSGSTYYADSVKGRFTISRDNAKNTVYLQMNSLKPEDTAVYYCAAEYWYGNAFDYWGQGTQVTVSS”, which “polyreactivity (PSR sort gate)” value is on record?
A: low polyreactivity

Q: With “QVQLVESGGGLVQAGGSLRLSCAASGRIFVSNAMGWYRQAPGKERELVAGITWTSGSTYYADSVKGRFTISRDNAKNTFYLQMNSLKPEDSAVYYCAAEFWYGNALDYWGQGTQVTVSS” as the sequence, how does the “polyreactivity (PSR sort gate)” value read?
A: low polyreactivity

Q: With “QVQLVESGGGLVQAGGSLRLSCAASGRIFVSNDMGWYSQAPGKERELVAAISWSDDSTHYADSVKGRLTISRDNAKNTVYLQMNSLKPEDTAVYYCNKQRYYSTWRYDYWGQGTQVTVSS” as the sequence, how does the “polyreactivity (PSR sort gate)” value read?
A: low polyreactivity

Q: Which “polyreactivity (PSR sort gate)” value does the source give for “QVQLVESGGGLVQAGGSLRLSCAASGRIFVSNTMGWYRQAPGKDWEWVAAITSVGSTNYADSVKGRFTISRDHAKNTVYLQMNSLKPEDTAVYYCNADNPYSDGADSLGNYWGQGTQVTVSS” here?
A: low polyreactivity

Q: For “QVQLVESGGGLVQAGGSLRLSCAASGRIFVTNAMGWYRQAPGKEREMVAAITRRGGRTYYADSVKGRFTISRDNAKNTVYLQMHSLKREDTAVYYCAAERYPEAGSPYGTAEMDYWGQGTQVTVSS”, which “polyreactivity (PSR sort gate)” value is on record?
A: high polyreactivity

Q: With “QVQLVESGGGLVQAGGSLRLSCAASGRIFVTNTMGWYRQAPGKERELVAAIDNSAGSTYYADSVKGRFTISRDNAKNTVYLQMNSLKPEDTAVYYCAADYPPYYGYGYWGQGTQVSVSS” as the sequence, how does the “polyreactivity (PSR sort gate)” value read?
A: low polyreactivity

Q: Which “polyreactivity (PSR sort gate)” value does the source give for “QVQLVESGGGLVQAGGSLRLSCAASGRIFVVNAMGWYRQAPGKERELVAAITRRGGSTYADSVKGRFTISRDNAKNTVYLQMNSLKPEDTAVYYCNKLVTGGSWSPGHYRYNYWGQGTQVTVSS” here?
A: high polyreactivity

Q: With “QVQLVESGGGLVQAGGSLRLSCAASGRIFVVYAMGWYRQAPGKERELVAAITRSGGRTFYAASVKGRFTISRDNATNTVYLQMYSQKPEDTAVYYCNKVDRFYLRLVYWGQGTQVTVAS” as the sequence, how does the “polyreactivity (PSR sort gate)” value read?
A: high polyreactivity

Q: With “QVQLVESGGGLVQAGGSLRLSCAASGRIFVVYAMGWYRQAPGKERELVAAITYGGGSTHYADSVKGRFTISRDNAKNTVYLQINSLIPEDTAVYYCAADLFYHSYGYEYWGQGTQVTVSS” as the sequence, how does the “polyreactivity (PSR sort gate)” value read?
A: low polyreactivity

Q: With “QVQLVESGGGLVQAGGSLRLSCAASGRIFVVYAMGWYRQAPGKERELVASITWRGGSTYYADSVKGRFTISRDNAKNTVDLQMNSLKPEDTAVYYCAAELDVYVSIGSRFHFDYCGQGTQVTVSS” as the sequence, how does the “polyreactivity (PSR sort gate)” value read?
A: low polyreactivity

Q: With “QVQLVESGGGLVQAGGSLRLSCAASGRIFVWNTMGWYRQAPGKERELVAAITSGGSTTYADSVKGRFTISRDNAKNTVYLQMNSLKPEDTAVYYCNTELDLYHPGDDYWGQGTQVTVSS” as the sequence, how does the “polyreactivity (PSR sort gate)” value read?
A: high polyreactivity

Q: Which “polyreactivity (PSR sort gate)” value does the source give for “QVQLVESGGGLVQAGGSLRLSCAASGRIFVWNVMGWYRQAPGKERELVAAITYSGDTTYYADSVKGRFTISRDNAKNTVYLQMNSLKPEDTAFYYCAAVRRGGGVKYDYWGQGTQVTVSS” here?
A: high polyreactivity

Q: With “QVQLVESGGGLVQAGGSLRLSCAASGRIFVYNAMGWYRQAPGKERELVAAITRGGSTYYADSVKGRFTISRDNAKNTVYLQMNSLKPEDTAVYYCASDYQRNDFRWYDYWGQGTQVTVSS” as the sequence, how does the “polyreactivity (PSR sort gate)” value read?
A: low polyreactivity

Q: For “QVQLVESGGGLVQAGGSLRLSCAASGRIFVYNVMGWYSQAPGKERELVAAISWGTGSTYADSVKGRFTISRANAKNSVYLQMNSLKPEDTAVYYCAADSFIPPYDHWGQGTQVTVSS”, which “polyreactivity (PSR sort gate)” value is on record?
A: low polyreactivity

Q: For “QVQLVESGGGLVQAGGSLRLSCAASGRIFVYYAMGWYRQAPGKERELVASISYSGASTYYADSVKGRFTISRDNAKNTVYLQMYSLKPEDTAVYYCNTDGDDFFHVIYDYWGQGTQVTVSS”, which “polyreactivity (PSR sort gate)” value is on record?
A: low polyreactivity

Q: With “QVQLVESGGGLVQAGGSLRLSCAASGRIFVYYAMGWYRQAPGKERELVATITSSDITNDADSVKGRFTISCDNAKNTVYLQMNSLKPEDTAVYYCARDYYVYSSGHVPLDYWGQGTQVTVSS” as the sequence, how does the “polyreactivity (PSR sort gate)” value read?
A: low polyreactivity

Q: For “QVQLVESGGGLVQAGGSLRLSCAASGRIFVYYTMGWYRPAPGKERELVAAIRSSGGSTYADSVKGRFTISRDNAKNTVSLQMNSLKPEDTAVYYCNAGYRSWQYRSGLYGDYNYWGQGTQVTVSS”, which “polyreactivity (PSR sort gate)” value is on record?
A: high polyreactivity

Q: For “QVQLVESGGGLVQAGGSLRLSCAASGRIFVYYVMGWYRQAPGKERELVAAITYSGGSTYYADSVKGRFTISRDNAKNTVYLQMNSLKPEDTAVYYCNKVDAFGIVRLYYWGQGTQVTVSS”, which “polyreactivity (PSR sort gate)” value is on record?
A: low polyreactivity

Q: With “QVQLVESGGGLVQAGGSLRLSCAASGRIFWAYAMGWYRQAPGKERELVADITSGGSTYYADSVKGRFTISRDNAKNNVYLQMNSLKPEDTAVYYCAVGSKWVDDSPEDEYWGQGTQVTVSS” as the sequence, how does the “polyreactivity (PSR sort gate)” value read?
A: low polyreactivity

Q: For “QVQLVESGGGLVQAGGSLRLSCAASGRIFWDNAMGWYRQAAGKEWELVAAISDSVVITYYADSVKGRFTISRDNAKNTVYLQMNSLKPEDTAVYYCAADKRGTVYLSSLWMDYWGQGTQVTVSS”, which “polyreactivity (PSR sort gate)” value is on record?
A: low polyreactivity

Q: Which “polyreactivity (PSR sort gate)” value does the source give for “QVQLVESGGGLVQAGGSLRLSCAASGRIFWDYAMGWYRQAPGKERELVAVITFSGDSTYYADSVKGRFTISRDYAKNTVYLQMNSLKPEDTAVYYCAAARAIRQFWYVATFEYWGQGTQVTVSS” here?
A: low polyreactivity

Q: With “QVQLVESGGGLVQAGGSLRLSCAASGRIFWEYAMGWYRQAPGKERELVAAITWRVGSTYYADSVKGRFTISRDNAKNTVYLQMNSLKPEDTAVYYCVARSQSIRYTYIRSYYWGQGTQVTVSS” as the sequence, how does the “polyreactivity (PSR sort gate)” value read?
A: low polyreactivity

Q: With “QVQLVESGGGLVQAGGSLRLSCAASGRIFWFYTMGWYRQAPGKERELVARITTSGGSTYYADSVKGRFTISRDNAKNTVYLQMNSLKPEDTAVYYCAARPRDYHSFSLDYYYWGQGTQVTVSS” as the sequence, how does the “polyreactivity (PSR sort gate)” value read?
A: high polyreactivity

Q: With “QVQLVESGGGLVQAGGSLRLSCAASGRIFWGNAMGWYRQAPGKEREFVAGITGIGGRTYYADSVKGRFTISRDNAKNTVYLQMNSLKPEDTAVYYCARTWAVSYGYAMDYWGQGTQVTVSS” as the sequence, how does the “polyreactivity (PSR sort gate)” value read?
A: low polyreactivity

Q: With “QVQLVESGGGLVQAGGSLRLSCAASGRIFWGYDMGSYRQAPGKQTEFVAAISSGGGRTYYADSVKGRFTISRDNAKNPVYLPMNSLKPEDTAVYYCNAELNWYYYIHLDYWGQGTQVTVSS” as the sequence, how does the “polyreactivity (PSR sort gate)” value read?
A: low polyreactivity

Q: With “QVQLVESGGGLVQAGGSLRLSCAASGRIFWGYTMGWYRQAPGKERELVAAITFRGATTYYADSVKGRFTISRDNAKNTVYLQLNSLKPEDTAVYYCAKRGYASGSKWDYGYWGQGTQVTVSS” as the sequence, how does the “polyreactivity (PSR sort gate)” value read?
A: high polyreactivity

Q: With “QVQLVESGGGLVQAGGSLRLSCAASGRIFWGYVMGWYRQAPGKERELVAAISSGGDTHYADSVKGRFTISRDNAKNTVYLQMNSLKPEDTAVYYCAKENQYYDSKVAGVLTGLYDYWGQGTQVTVSS” as the sequence, how does the “polyreactivity (PSR sort gate)” value read?
A: low polyreactivity

Q: For “QVQLVESGGGLVQAGGSLRLSCAASGRIFWHNAMGWYRQAPGKERELVAAITGGGSTYYADSVKGRFTISRDNAKNTVYLQMNSLKPEDTAVYYCATLGSLRYYWPGYDYWGQGTQVTVSS”, which “polyreactivity (PSR sort gate)” value is on record?
A: low polyreactivity

Q: Which “polyreactivity (PSR sort gate)” value does the source give for “QVQLVESGGGLVQAGGSLRLSCAASGRIFWHNAMGWYRQAPGTERELVAAITGGGSTYYADSVKGRFTISRDNAKNTVYLQMNSLKPEDTAVYYCATLGSLRYYWPGYDYWGQGTQVTVSS” here?
A: low polyreactivity
